Results reported in patent publication US20220151976A1 (UNIVERSITY OF TOLEDO, published 2022).

What was measured:
[1] = biological target: T1, Eukaryotic initiation factor 4A (eIF4A1), endogenous in 231S cells (human, UniProt P60842 2-406); assay: proximity ligation assay in 231S cells, CXCL12 5 min against unstimulated
T1 construct: Endogenous intracellular protein; eIF4A1 antibody (Cohesion CQA1180) used in PLA and IP, eIF4A C32B4 in Western blots
Experimental: 100 nM AMD3465 was added 30 min prior to stimulation. […] Representative images of the PLA experiment are provided. Quantification indicates the average number of interactions/cell across multiple independent fields.

[2] = biological target: T1, Eukaryotic initiation factor 4A …; assay: reciprocal co-immunoprecipitation (LASP1 IP, eIF4A blot) from 231S lysate, densitometry against 0 min
Experimental: (§1) 1 mg of total protein lysate was employed in all immunoprecipitation reactions. eIF4B was immunoprecipitated by using 2 μg of eIF4B antibody (Cell Signaling Technology, Danvers, Mass., Cat. No. 13088). Mouse (G3A1) mAb IgG1 Isotype Control (Cell Signaling Technology, Danvers, Mass., Cat. No. 5415) served as the mock control. Next, eIF4A was immunoprecipitated using 2 μg of eIF4A1 antibody (Cohesion Biosciences, London, Purley, Cat. No. CQA1180). His-Tag (D3L10) XP® Rabbit mAb (Cell Signaling Technology, Danvers, Mass., Cat. No. 12698) was employed for the mock condition. […] As in the eIF4B Co-IP, mouse (G3A1) IgG1 isotype mAb was employed as the mock control. Prior to immunoprecipitation, lysates were pre-cleared with 20 μL of PureProteome™ Protein G Magnetic Beads (Millipore, Billerica, Mass., Cat. No. LSKMAGG10) for 2 H at 4° C. Immunoprecipitation reactions were then allowed to proceed with 20 μL of protein G magnetic beads and the appropriate amount of antibody for 2 h at 4° C. Beads were washed thrice with Co-IP buffer. To avoid heavy chain contamination (55 kDa) in the eIF4A Co-IP, antibodies were cross-linked using BS³ (according to Millipore recommendations). Proteins of interest were analyzed by sodium dodecyl sulfate-polyacrylamide gel electrophoresis (SDS-PAGE) and Western blotting.

[3] = biological target: T2, Eukaryotic initiation factor 4B (eIF4B), endogenous in 231S cells (human, UniProt P23588 1-611); assay: reciprocal co-immunoprecipitation (LASP1 IP, eIF4B blot) from 231S lysate, densitometry against 0 min
T2 construct: Endogenous protein in lysate
Experimental: as §1

[4] = biological target: eIF4E, endogenous in 231S cells (human) (UniProt P06730); assay: m7GTP pulldown from 231S lysate after CXCL12, LASP1/eIF4E densitometry against 0 min; association may be through the complex
eIF4E, endogenous in 231S cells (human), sequence (P06730 2-217 limits assumed): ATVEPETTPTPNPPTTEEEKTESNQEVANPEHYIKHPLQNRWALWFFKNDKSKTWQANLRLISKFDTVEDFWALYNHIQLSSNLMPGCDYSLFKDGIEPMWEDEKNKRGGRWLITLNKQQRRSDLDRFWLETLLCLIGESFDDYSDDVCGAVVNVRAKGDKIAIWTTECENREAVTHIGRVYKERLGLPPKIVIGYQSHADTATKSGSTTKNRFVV

T1 sequence (P60842 2-406 limits assumed): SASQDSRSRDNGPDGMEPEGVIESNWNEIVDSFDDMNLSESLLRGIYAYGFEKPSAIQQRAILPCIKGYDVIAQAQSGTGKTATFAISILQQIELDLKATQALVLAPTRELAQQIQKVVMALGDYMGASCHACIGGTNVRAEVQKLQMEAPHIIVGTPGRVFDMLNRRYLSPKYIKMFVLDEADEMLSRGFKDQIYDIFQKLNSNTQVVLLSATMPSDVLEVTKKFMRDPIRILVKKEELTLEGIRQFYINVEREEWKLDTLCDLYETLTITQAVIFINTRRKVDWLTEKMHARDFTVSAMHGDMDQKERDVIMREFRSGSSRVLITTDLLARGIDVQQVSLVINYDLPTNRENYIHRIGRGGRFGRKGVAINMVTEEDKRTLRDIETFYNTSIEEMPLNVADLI
T2 sequence (P23588 whole entry): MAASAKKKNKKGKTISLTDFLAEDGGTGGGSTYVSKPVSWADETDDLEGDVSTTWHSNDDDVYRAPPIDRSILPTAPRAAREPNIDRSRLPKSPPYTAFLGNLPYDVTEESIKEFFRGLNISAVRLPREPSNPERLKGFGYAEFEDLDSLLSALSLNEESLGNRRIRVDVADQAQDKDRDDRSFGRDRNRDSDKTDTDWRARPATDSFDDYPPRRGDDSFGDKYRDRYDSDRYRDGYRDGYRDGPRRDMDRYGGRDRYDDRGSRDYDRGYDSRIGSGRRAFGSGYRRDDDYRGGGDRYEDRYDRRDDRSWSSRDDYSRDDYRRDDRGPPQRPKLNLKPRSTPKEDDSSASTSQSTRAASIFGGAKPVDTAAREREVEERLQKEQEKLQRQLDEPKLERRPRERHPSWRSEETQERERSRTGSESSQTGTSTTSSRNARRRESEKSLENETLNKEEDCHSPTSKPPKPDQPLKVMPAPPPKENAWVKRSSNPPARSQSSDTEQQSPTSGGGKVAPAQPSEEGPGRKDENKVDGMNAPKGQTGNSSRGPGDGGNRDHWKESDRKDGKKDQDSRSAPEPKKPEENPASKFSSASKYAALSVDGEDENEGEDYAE

B1: LIM and SH3 Protein 1 (LASP1), endogenous in 231S cells (other, human, UniProt Q14847 1-261, looked up)
chain: MNPNCARCGKIVYPTEKVNCLDKFWHKACFHCETCKMTLNMKNYKGYEKKPYCNAHYPKQSFTMVADTPENLRLKQQSELQSQVRYKEEFEKNKGKGFSVVADTPELQRIKKTQDQISNIKYHEEFEKSRMGPSGGEGMEPERRDSQDGSSYRRPLEQQQPHHIPTSAPVYQQPQQQPVAQSYGGYKEPAAPVSIQRSAPGGGGKRYRAVYDYSAADEDEVSFQDGDTIVNVQQIDDGWMYGTVERTGDTGMLPANYVEAI
notes: Endogenous intracellular protein; detected or immunoprecipitated with mouse LASP1 antibody 8C6 (Biolegend 909301); also called endogenous LASP1
fold stimulation of the interaction [1]: 3 fold | fold increase in association [2]: 19.1 fold | fold increase in association [3]: 7.5 fold | fold increase in association [4]: 2.2 fold
